Ends that are not written are not given here.
What follows are substances tested against T1, dipeptidyl-peptidase IV (DPP-IV) (Homo sapiens, UniProt P27487) (assay: DPP-IV inhibition assay on SPOT-synthesized peptides (cleaved from cellulose membrane)). Details: peptides cleaved from cellulose membrane, concentration not known (semi-quantitative); averages of four determinations from two experiments.
T1 construct: purchased Creative BioMart (Shirley, NY, USA); host or cells: HEK293 human cells
Assay type: biochemical
Text: Recombinant human dipeptidyl-peptidase IV (DPP-IV, EC 3.4.14.5, expressed in HEK293 human cells, >95% purity, activity >5500 pmoles Gly–Pro–7-amido-4-methylcoumarin/min/µg) was purchased from Creative BioMart (Shirley, NY, USA) while polyclonal goat DPP-IV antibody and polyclonal donkey anti-goat secondary antibody conjugated to horseradish peroxidase were obtained from R&D Systems (Minneapolis, MN, USA). Pierce™ ECL western blotting substrate and protein-free (TBS) blocking buffer were from Thermo Scientific (Rockford, IL, USA). Gly–Pro–p-nitroanilide (H-Gly–Pro–p-NA∙HCl) was purchased from Bachem Americas (Torrance, CA, USA). Synthesized peptides (≥95% purity) were prepared and purified by GL Biochem (Shanghai) Ltd. (Shanghai, China).
Peptide arrays of deca-peptides spanning the entire α-lactalbumin sequence with a frame shift of one amino acid between successive sequences were prepared by Kinexus Bioinformatics Corporation (Vancouver, BC, Canada). The peptides were synthesized from the C-terminal amino acid using the SPOT technology consisting of the stepwise coupling of the Fmoc-protected amino acids and cleavage of the side chain protection groups. The α-lactalbumin-derived peptides were synthesized on trioxatridecanediamine (TOTD) and β-alanine-modified Whatman 540 cellulose membranes for the binding and inhibition assays, respectively. For the inhibition assay, the peptides were synthesized in large dots (5–7 mm in diameter) and the quality of the synthesis was verified by HPLC analysis of quality controls spots included on the membranes.
In order to determine the effect of the SPOT-synthesized peptides on the activity of the DPP-IV enzyme, the peptides were first cleaved from the cellulose support by incubating the membranes with gaseous ammonia overnight. Peptide spots (5 mm in diameter) were then punched out using a single-hole punch and transferred into microcentrifuge tubes containing 150 µL of acetonitrile (50% in 100 mM Tris–HCl buffer pH 8.0). The peptide solution (50 µL) was pipetted into a 96-well microplate with 35 µL of the chromogenic substrate Gly–Pro–p-NA (0.29 mM in 100 mM Tris–HCl buffer pH 8.0). The mixture was pre-incubated for 10 min at 37 °C, whereupon 15 µL of DPP-IV (25 mU/mL) was added and the enzymatic reaction was carried out for 30 min at 37 °C. The reaction was then terminated by addition of 100 µL of 1 M sodium acetate buffer pH 4.0 and the absorbance of the released p-nitroaniline was measured at 405 nm using a Tecan Infinite® 200 Pro microplate reader (ESBE Scientific, Markham, ON, Canada). Positive and negative controls (DPP-IV activity with no inhibitor and no DPP-IV activity, respectively) were prepared using punched peptide-free cellulose spots from the same membrane used for peptide synthesis, and adding Tris-HCl buffer in place of the sample and in place of the sample and enzyme solution, respectively.
One unit of DPP-IV was defined as the concentration of enzyme that releases 1 µmol per min of p-nitroaniline from Gly–Pro–p-NA (100 µM) at 37 °C and pH 8.0.

T1 sequence (P27487 whole entry): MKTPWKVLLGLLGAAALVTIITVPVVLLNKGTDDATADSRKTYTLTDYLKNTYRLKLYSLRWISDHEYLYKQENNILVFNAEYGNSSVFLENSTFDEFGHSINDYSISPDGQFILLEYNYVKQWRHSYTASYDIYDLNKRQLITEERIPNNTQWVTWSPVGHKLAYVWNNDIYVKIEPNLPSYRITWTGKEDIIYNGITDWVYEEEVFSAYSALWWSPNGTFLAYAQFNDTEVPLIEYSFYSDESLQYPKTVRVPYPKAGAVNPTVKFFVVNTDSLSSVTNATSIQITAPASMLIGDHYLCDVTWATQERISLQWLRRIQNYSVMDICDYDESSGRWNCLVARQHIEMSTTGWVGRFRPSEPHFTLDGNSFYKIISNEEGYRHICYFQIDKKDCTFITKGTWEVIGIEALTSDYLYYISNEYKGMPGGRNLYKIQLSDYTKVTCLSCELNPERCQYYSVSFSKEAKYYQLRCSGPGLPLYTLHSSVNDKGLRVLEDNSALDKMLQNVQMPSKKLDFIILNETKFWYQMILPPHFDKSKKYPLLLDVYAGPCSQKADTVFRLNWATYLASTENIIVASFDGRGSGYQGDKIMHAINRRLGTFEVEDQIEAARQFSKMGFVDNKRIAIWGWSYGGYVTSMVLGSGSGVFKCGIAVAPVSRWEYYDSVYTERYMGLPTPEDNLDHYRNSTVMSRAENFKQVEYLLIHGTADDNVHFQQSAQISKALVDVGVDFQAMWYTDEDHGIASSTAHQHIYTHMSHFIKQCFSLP

Substance | Percent inhibition of DPP-IV activity, SPOT-synthesized deca-peptides
I3: α-lactalbumin-derived deca-peptide, residues 91–100 (Table S1) (CVKKILDKVG; UniProt P00711 110-119, looked up, fragment) | 26%
A4: α-lactalbumin-derived deca-peptide, residues 4–13 (Table S1) (TKCELSQLLK; UniProt P00709 23-32, looked up, fragment) | 20%
D2: α-lactalbumin-derived deca-peptide, residues 35–44 (Table S1) (GYDTQAIVQN; UniProt P00711 54-63, looked up, fragment) | 9%
A2: α-lactalbumin-derived deca-peptide, residues 2–11 (Table S1) (QFTKCELSQL; UniProt P00709 21-30, looked up, fragment) | 16%
QNNDSTEYGL [D10, QNNDSTEYGL] | 14%
C5: α-lactalbumin-derived deca-peptide, residues 27–36 (Table S1) (ICTMFHTSGY; UniProt P00709 46-55, looked up, fragment) | 16%
I2: α-lactalbumin-derived deca-peptide, residues 90–99 (Table S1) (MCAKKILDIK; UniProt P00709 109-118, looked up, fragment) | 19%
C2: α-lactalbumin-derived deca-peptide, residues 24–33 (Table S1) (PEWVCTTFHT; UniProt P00711 43-52, looked up, fragment) | 14%
C4: α-lactalbumin-derived deca-peptide, residues 26–35 (Table S1) (WVCTTFHTSG; UniProt P00711 45-54, looked up, fragment) | 26%
J2: α-lactalbumin-derived deca-peptide, residues 101–110 (Table S1) (IDYWLAHKAL; UniProt P00709 120-129, looked up, fragment) | 18%
H11: α-lactalbumin-derived deca-peptide, residues 88–97 (Table S1) (DIMCVKKILD; UniProt P00711 107-116, looked up, fragment) | 15%
G5: α-lactalbumin-derived deca-peptide, residues 71–80 (Table S1) (NICNISCDKF; UniProt P00711 90-99, looked up, fragment) | 25%
IVQNNDSTEY [D8] | 15%
GLFQINNKIW [E7] | 9%
G3: α-lactalbumin-derived deca-peptide, residues 69–78 (Table S1) (SSNICNISCD; UniProt P00711 88-97, looked up, fragment) | 16%
TEYGLFQINN [E4] | 9%
G8: α-lactalbumin-derived deca-peptide, residues 74–83 (Table S1) (NISCDKFLDD; UniProt P00711 93-102, looked up, fragment) | 19%
B2: α-lactalbumin-derived deca-peptide, residues 13–22 (Table S1) (KDLKGYGGVS; UniProt P00711 32-41, looked up, fragment) | 11%

Substance | Percent inhibition of DPP-IV activity, SPOT-synthesized deca-peptides
QINNKIWCKD [E10, QINNKIWCKD] | 6%
EYGLFQINNK [E5] | 10%
I1: α-lactalbumin-derived deca-peptide, residues 89–98 (Table S1) (IMCVKKILDK; UniProt P00711 108-117, looked up, fragment) | 17%
B3: α-lactalbumin-derived deca-peptide, residues 14–23 (Table S1) (DIDGYGGIAL; UniProt P00709 33-42, looked up, fragment) | 13%
J5: α-lactalbumin-derived deca-peptide, residues 104–113 (Table S1) (WLAHKALCSE; UniProt P00711 123-132, looked up, fragment) | 16%
H3: α-lactalbumin-derived deca-peptide, residues 80–89 (Table S1) (FLDDDLTDDI; UniProt P00711 99-108, looked up, fragment) | 18%
B5: α-lactalbumin-derived deca-peptide, residues 16–25 (Table S1) (KGYGGVSLPE; UniProt P00711 35-44, looked up, fragment) | 11%
A5: α-lactalbumin-derived deca-peptide, residues 5–14 (Table S1) (KCEVFRELKD; UniProt P00711 24-33, looked up, fragment) | 17%
B8: α-lactalbumin-derived deca-peptide, residues 19–28 (Table S1) (GGVSLPEWVC; UniProt P00711 38-47, looked up, fragment) | 15%
C8: α-lactalbumin-derived deca-peptide, residues 30–39 (Table S1) (TFHTSGYDTQ; UniProt P00711 49-58, looked up, fragment) | 13%
H9: α-lactalbumin-derived deca-peptide, residues 86–95 (Table S1) (TDDIMCAKKI; UniProt P00709 105-114, looked up, fragment) | 20%
NNDSTEYGLF [D11, NNDSTEYGLF] | 11%
C6: α-lactalbumin-derived deca-peptide, residues 28–37 (Table S1) (CTTFHTSGYD; UniProt P00711 47-56, looked up, fragment) | 10%
VQNNDSTEYG [D9] | 13%
J3: α-lactalbumin-derived deca-peptide, residues 102–111 (Table S1) (DYWLAHKALC; UniProt P00709 121-130, looked up, fragment) | 15%
D3: α-lactalbumin-derived deca-peptide, residues 36–45 (Table S1) (YDTQAIVENN; UniProt P00709 55-64, looked up, fragment) | 11%
C7: α-lactalbumin-derived deca-peptide, residues 29–38 (Table S1) (TTFHTSGYDT; UniProt P00711 48-57, looked up, fragment) | 5%

Now from value to substance:

Percent inhibition of DPP-IV activity, SPOT-synthesized deca-peptides | Substance
19% | SEKLDQWLCE [K2]
21% | ALCSEKLDQW [J10]
16% | KDDQNPHSSN [F7]
22% | CDKFLDDDLT [G11]
21% | AHKALCSEKL [J7]
21% | SCDKFLDDDL [G10]
22% | NNKIWCKDDQ [F1]
15% | DQNPHSSNIC [F9]
17% | NKIWCKDDQN [F2]
15% | DDQNPHSSNI [F8]
21% | IWCKDDQNPH [F4]
20% | HKALCSEKLD [J8]
19% | HAEGTFTSDY [K10, HAEGTFTSDY, reference compound]

Source: publication PMC4264199, “Peptide Array on Cellulose Support—A Screening Tool to Identify Peptides with Dipeptidyl-Peptidase IV Inhibitory Activity within the Sequence of α-Lactalbumin” (International Journal of Molecular Sciences, 2014)
